# Publication PMC10675646 (Viruses, 2023)
# Where no end group is shown, it is not given here. [ ]: non-standard residue; d: D form. SeMet = C[Se]CC[C@H](N)C(=O)O
# T1: TRAF2 TRAF-C domain (human TRAF2 residues 315-501), tag cleaved, for crystallization (human, UniProt Q12933 315-501)
# T1 sequence (looked up): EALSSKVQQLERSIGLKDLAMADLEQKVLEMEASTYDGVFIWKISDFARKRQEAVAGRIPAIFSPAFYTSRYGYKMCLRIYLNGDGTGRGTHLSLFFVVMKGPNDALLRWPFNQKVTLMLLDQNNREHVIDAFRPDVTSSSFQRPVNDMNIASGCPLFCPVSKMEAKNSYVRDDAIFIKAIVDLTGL
# Molecular target: T1, TRAF2 TRAF-C domain (human TRAF2 …)
# Experiment: crystal structure
# Settings: both partners purified
binder,measurement,value
RATATIP[SeMet]QASLPFGW,binding result,binds
